In test [1] the target is T1, FcγRIIIa extracellular domain with C-terminal His tag (allotype not given) (human, UniProt P08637 17-208).
T1 construct: extracellular domain; also called CD16A; not shown: His tag at the C terminus
As to the kind of experiment: SPR (Biacore): antibody captured on the chip, FcγR as analyte; amount bound per amount captured, relative to GpH7-B3/GpL16-k0 without mutation = 100; FcγR concentration not shown. The text has this:
(§1) B3 variants were expressed and purified using the method of Reference Example 1, and the binding to each FcγR (FcγRIa, FcγRIIa type H, FcγRIIa type R, FcγRIIb, and FcγRIIIa) was comprehensively evaluated using the method of Reference Example 2.
(§2) Figures were produced based on the results of interaction analysis with each FcγR by the method below. […] The value obtained by multiplying this value by 100 was used as an indicator of the relative FcγR-binding activity of each variant.

Test [2] has as its target T2, FcγRIa extracellular domain with C-terminal His tag (human, UniProt P12314 16-292).
T2 construct: whole entry named; also called FcgRIa; CD64A; not shown: His tag at the C terminus
As to the kind of experiment: SPR (Biacore): antibody captured on the chip, FcγR as analyte; amount bound per amount captured, relative to GpH7-B3/GpL16-k0 without mutation = 100.
From the text: as §1, §2
In general terms: SPR reads the build-up and loss of mass on a sensor chip optically.

Test [3] concerns the target T3, FcγRIIb extracellular domain with C-terminal His tag (human, UniProt P31994 43-217).
T3 construct: extracellular domain; also called FcgRIIb; FcγRIIb extracellular region; not shown: His tag at the C terminus
T3 sequence (looked up): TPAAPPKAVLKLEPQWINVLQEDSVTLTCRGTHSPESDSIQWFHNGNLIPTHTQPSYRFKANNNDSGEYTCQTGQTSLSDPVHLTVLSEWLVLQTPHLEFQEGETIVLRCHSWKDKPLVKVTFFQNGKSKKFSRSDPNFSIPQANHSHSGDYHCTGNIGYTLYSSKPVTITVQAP
The test is described as above.
From the text: as §1, §2

In test [4] the target is T4, FcγRIIa type H extracellular domain with C-terminal His tag (human, UniProt P12318 34-217).
T4 construct: extracellular domain; also called FcγRIIa H; FcγRIIaH; not shown: His tag at the C terminus
T4 sequence (looked up): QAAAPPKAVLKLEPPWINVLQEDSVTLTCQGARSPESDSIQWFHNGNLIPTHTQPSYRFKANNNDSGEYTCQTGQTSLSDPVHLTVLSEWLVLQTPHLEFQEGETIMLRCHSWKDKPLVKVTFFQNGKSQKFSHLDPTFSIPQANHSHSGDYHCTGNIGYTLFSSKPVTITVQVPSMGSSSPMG
The description is as above.
From the text: as §1, §2

Test [5] addresses T5, FcγRIIa type R extracellular domain with C-terminal His tag (human, UniProt P12318 34-217).
T5 chain: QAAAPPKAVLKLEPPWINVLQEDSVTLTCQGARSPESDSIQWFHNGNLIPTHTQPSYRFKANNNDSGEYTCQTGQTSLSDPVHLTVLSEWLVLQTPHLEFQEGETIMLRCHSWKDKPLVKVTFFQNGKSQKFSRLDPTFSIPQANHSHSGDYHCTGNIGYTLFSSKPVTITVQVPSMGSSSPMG
As to the kind of experiment: SPR, FcγR bound/antibody captured. The text has this:
(§3) IL6R-L (SEQ ID NO: 22) was utilized as a common antibody L chain for all of the antibodies. These variants were expressed, purified, and expressed by the method of Reference Example 1. […] Interactions of each PD variant with FcγRIIa type R and FcγRIIb were comprehensively evaluated by the method of Reference Example 2.
(§4) With regard to the results of analyzing the interaction with the respective FcγRs, a figure was produced according to the following method.

Test [6] concerns the target T3, FcγRIIb extracellular domain with …. As to the kind of experiment: SPR, FcγR bound/antibody captured.
From the text: as §3, §4

For test [7], the target named is T6, FcγRIa extracellular domain, C-terminal His tag (human, UniProt P12314 16-292).
T6 construct: the whole entry is named; also called FcgRIa; CD64A; not shown: His tag at the C terminus
As to the kind of experiment: SPR (Biacore), antibody captured, FcγR as analyte. The text has this:
(§5) Furthermore, KD(IIaR)/KD(IIb) and KD(IIaH)/KD(IIb) in the table respectively represent the value obtained by dividing the KD value of each variant for FcγRIIaR by the KD value of each variant for FcγRIIb, and the value obtained by dividing the KD value of each variant for FcγRIIaH by the KD value of each variant for FcγRIIb. KD(IIb) of the parent polypeptide/KD(IIb) of the altered polypeptide refers to the value obtained by dividing the KD value of the parent polypeptide for FcγRIIb by the KD value of each variant for FcγRIIb.
(§6) Kinetic analyses for calculating the KD values of each altered antibody for FcγR were performed according to the following method. First, antibodies of interest were captured onto the above-mentioned sensor chips, and an Fcγ receptor diluted with the running buffer was allowed to interact. The Biacore Evaluation Software was used to globally fit the measured results to the obtained sensorgram using the 1:1 Langmuir binding model, and the association rate constant ka (L/mol/s) and the dissociation rate constant kd (1/s) were calculated; and from those values the dissociation constants KD (mol/L) were calculated.

Test [8] addresses T7, FcγRIIa type R extracellular domain, C-terminal His tag (human, UniProt P12318 34-217).
T7 construct: extracellular domain; also called FcgRIIaR; FcγRIIaR; not shown: His tag at the C terminus
T7 sequence (looked up): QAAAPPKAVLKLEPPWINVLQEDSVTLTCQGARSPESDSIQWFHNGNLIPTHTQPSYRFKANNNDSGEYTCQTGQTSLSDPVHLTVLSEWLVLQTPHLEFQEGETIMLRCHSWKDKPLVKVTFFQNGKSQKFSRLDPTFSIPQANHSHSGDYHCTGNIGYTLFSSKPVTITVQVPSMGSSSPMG
As to the kind of experiment: SPR (Biacore), antibody captured, FcγR as analyte.
From the text: as §5, §6

Test [9] deals with T5, FcγRIIa type R extracellular domain …. As to the kind of experiment: SPR (Biacore), antibody captured, FcγR analyte.
From the text: (§7) Furthermore, KD(IIaR)/KD(IIb) and KD(IIaH)/KD(IIb) in the table respectively show the value obtained by dividing the KD value of each variant for FcγRIIaR by the KD value of each variant for FcγRIIb, and the value obtained by dividing the KD value of each variant for FcγRIIaH by the KD value of each variant for FcγRIIb. KD(IIb) of the parent polypeptide/KD(IIb) of the altered polypeptide refers to a value obtained by dividing the KD value of the parent polypeptide for FcγRIIb by the KD value of each variant for FcγRIIb.
as §6

Test [10] has as its target T4, FcγRIIa type H extracellular domain …. As to the kind of experiment: SPR (Biacore), antibody captured, FcγR analyte.
From the text: as §7, §6

Test [11] deals with T8, FcγRIIIa type V extracellular domain with C-terminal His tag (human, UniProt P08637 17-208).
T8 construct: extracellular domain; also called FcγRIIIaV; FcgRIIIaV; not shown: His tag at the C terminus
As to the kind of experiment: SPR (Biacore), antibody captured, FcγR analyte.
From the text: as §7, §6

T6 sequence (P12314 16-292): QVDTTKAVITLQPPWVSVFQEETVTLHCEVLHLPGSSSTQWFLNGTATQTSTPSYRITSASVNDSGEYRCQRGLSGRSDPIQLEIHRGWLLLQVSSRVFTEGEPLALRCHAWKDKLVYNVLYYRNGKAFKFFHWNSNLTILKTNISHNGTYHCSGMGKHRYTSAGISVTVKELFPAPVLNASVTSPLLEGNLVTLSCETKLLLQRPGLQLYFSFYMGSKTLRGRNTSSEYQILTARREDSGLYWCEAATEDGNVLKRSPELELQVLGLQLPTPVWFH
T2 sequence (P12314 16-292): as above
T8 sequence (P08637 17-208 F176V): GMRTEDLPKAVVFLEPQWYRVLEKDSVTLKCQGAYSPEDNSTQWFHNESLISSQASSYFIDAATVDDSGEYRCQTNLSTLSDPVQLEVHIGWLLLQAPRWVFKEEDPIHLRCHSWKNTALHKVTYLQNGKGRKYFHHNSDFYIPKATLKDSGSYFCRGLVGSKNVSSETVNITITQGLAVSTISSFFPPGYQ
T1 sequence (P08637 17-208): as the sequence (P08637 17-208 F176V) above, with V160F counted along it

B1: B3 variant of GpH7-B3/GpL16-k0 with mutation A (Pro at position 238 (EU numbering) substituted with Asp) (antibody, human IgG1, kappa)
heavy: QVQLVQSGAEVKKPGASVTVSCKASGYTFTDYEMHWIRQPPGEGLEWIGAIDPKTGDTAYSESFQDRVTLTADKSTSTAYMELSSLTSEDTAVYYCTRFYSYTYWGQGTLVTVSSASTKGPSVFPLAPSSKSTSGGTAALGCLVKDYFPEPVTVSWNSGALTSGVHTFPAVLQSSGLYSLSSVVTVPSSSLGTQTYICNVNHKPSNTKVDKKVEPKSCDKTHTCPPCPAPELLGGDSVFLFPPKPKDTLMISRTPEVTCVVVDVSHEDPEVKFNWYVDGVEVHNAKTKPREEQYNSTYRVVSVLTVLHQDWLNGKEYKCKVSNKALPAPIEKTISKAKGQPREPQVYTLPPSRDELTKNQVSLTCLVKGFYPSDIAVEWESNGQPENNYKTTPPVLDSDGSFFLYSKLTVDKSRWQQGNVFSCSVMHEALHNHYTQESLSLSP
light: DIVMTQSPLSLPVTPGEPASISCQASESLVHSNRNTYLHWYLQKPGQSPQLLIYKVSNRFSGVPDRFSGSGSGTDFTLKISRVEAEDVGVYYCSQNTHVPPTFGQGTKVEIERTVAAPSVFIFPPSDEQLKSGTASVVCLLNNFYPREAKVQWKVDNALQSGNSQESVTEQDSKDSTYSLSSTLTLSKADYEKHKVYACEVTHQGLSSPVTKSFNRGEC
notes: copies: 2 + 2
Take B1: the binding result is “no binding” in test [1], “binds” in test [2] and “binds” in [3].

B2: B3 variant of GpH7-B3/GpL16-k0 with mutation B (Leu at position 328 (EU numbering) substituted with Glu) (antibody, human IgG1, kappa)
heavy: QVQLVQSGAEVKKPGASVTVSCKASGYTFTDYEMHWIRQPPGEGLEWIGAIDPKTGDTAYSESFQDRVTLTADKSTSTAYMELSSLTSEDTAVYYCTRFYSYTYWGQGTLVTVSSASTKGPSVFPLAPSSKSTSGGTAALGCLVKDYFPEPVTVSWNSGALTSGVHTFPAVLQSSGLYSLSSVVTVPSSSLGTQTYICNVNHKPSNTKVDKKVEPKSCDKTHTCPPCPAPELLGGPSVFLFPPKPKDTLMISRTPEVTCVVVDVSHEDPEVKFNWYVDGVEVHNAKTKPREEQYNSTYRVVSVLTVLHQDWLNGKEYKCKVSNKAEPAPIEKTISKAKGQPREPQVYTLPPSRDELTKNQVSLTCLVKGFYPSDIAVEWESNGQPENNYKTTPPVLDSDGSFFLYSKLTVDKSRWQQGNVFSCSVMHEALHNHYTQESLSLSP
light: DIVMTQSPLSLPVTPGEPASISCQASESLVHSNRNTYLHWYLQKPGQSPQLLIYKVSNRFSGVPDRFSGSGSGTDFTLKISRVEAEDVGVYYCSQNTHVPPTFGQGTKVEIERTVAAPSVFIFPPSDEQLKSGTASVVCLLNNFYPREAKVQWKVDNALQSGNSQESVTEQDSKDSTYSLSSTLTLSKADYEKHKVYACEVTHQGLSSPVTKSFNRGEC
notes: copies: 2 + 2
B2: the binding result in test [4], in [2] and in test [3] was “binds” each time.

B3: IL6R-F652/IL6R-L (antibody, human IgG1, kappa)
heavy: QVQLQESGPGLVKPSETLSLTCAVSGHSISHDHAWSWVRQPPGEGLEWIGFISYSGITNYNPSLQGRVTISRDNSKNTLYLQMNSLRAEDTAVYYCARSLARTTAMDYWGEGTLVTVSSASTKGPSVFPLAPSSKSTSGGTAALGCLVKDYFPEPVTVSWNSGALTSGVHTFPAVLQSSGLYSLSSVVTVPSSSLGTQTYICNVNHKPSNTKVDKKVEPKSCDKTHTCPPCPAPELLGGDSVFLFPPKPKDTLYISRTPEVTCVVVDVSHEDPEVKFNWYVDGVEVHNAKTKPREEQYNSTYRVVSVLTVLHQDWLNGKEYKCKVSNKALPAPIEKTISKAKGQPREPQVYTLPPSRDELTKNQVSLTCLVKGFYPSDIAVEWESNGQPENNYKTTPPVLDSDGSFFLYSKLTVDKSRWQQGNVFSCSVMHEALHYHYTQKSLSLSP
light: not shown
notes: IL6R-F11 with P238D; copies: 2 + 2
Consider B3, for which the “relative FcγRIIaR-binding activity” value in test [5] was 100 % of IL6R-F652/IL6R-L. Further, in test [6], the “relative FcγRIIb-binding activity” value was 100 % of IL6R-F652/IL6R-L.

B4: IL6R-2B172/IL6R-L (antibody, human IgG1, kappa)
heavy: QVQLQESGPGLVKPSETLSLTCAVSGHSISHDHAWSWVRQPPGEGLEWIGFISYSGITNYNPSLQGRVTISRDNSKNTLYLQMNSLRAEDTAVYYCARSLARTTAMDYWGEGTLVTVSSASTKGPSVFPLAPSSKSTSGGTAALGCLVKDYFPEPVTVSWNSGALTSGVHTFPAVLQSSGLYSLSSVVTVPSSSLGTQTYICNVNHKPSNTKVDKKVEPKSCDKTHTCPPCPAPELLGGDSVFLFPPKPKDTLMISRTPEVTCVVVDVSHEDPEVKFNWYVDGVEVHNAKTKPREEQYNSTYRVVSVLTVLHQDWLNGKEYKCKMSNKALPAPIEKTISKAKGQPREPQVYTLPPSRDELTKNQVSLTCLVKGFYPSDIAVEWESNGQPENNYKTTPPVLDSDGSFFLYSKLTVDKSRWQQGNVFSCSVMHEALHNHYTQESLSLSP
light: not shown
notes: IgG1; P238D/V323M (EU numbering) introduced into IL6R-B3
As for B4, the equilibrium dissociation constant (Kd) in test [7] is 0.003 µM; in test [8], 6.1 µM.

B5: IL6R-BP106/IL6R-L (antibody, human IgG1, kappa)
heavy: QVQLQESGPGLVKPSETLSLTCAVSGHSISHDHAWSWVRQPPGEGLEWIGFISYSGITNYNPSLQGRVTISRDNSKNTLYLQMNSLRAEDTAVYYCARSLARTTAMDYWGEGTLVTVSSASTKGPSVFPLAPSSKSTSGGTAALGCLVKDYFPEPVTVSWNSGALTSGVHTFPAVLQSSGLYSLSSVVTVPSSSLGTQTYICNVNHKPSNTKVDKKVEPKSCDKTHTCPPCPAPELLGGDSVFLFPPKPKDTLMISRTPEVTCVVVDVSDEDPEVKFNWYVDGVEVHNAKTKPREEQYNSTYRVVSVLTVLHQDWLNGKEYKCKVSNKALPAPIEKTISKAKGQPREPQVYTLPPSRDELTKNQVSLTCLVKGFYPSDIAVEWESNGQPENNYKTTPPVLDSDGSFFLYSKLTVDKSRWQQGNVFSCSVMHEALHNHYTQESLSLSP
light: not shown
notes: IgG1; P238D/H268D (EU numbering) introduced into IL6R-B3
For B5, the Kd in test [7] worked out at 0.004 µM; in test [8] it was 11 µM.

B6: IL6R-BP119/IL6R-L (antibody, human IgG1, kappa)
heavy: QVQLQESGPGLVKPSETLSLTCAVSGHSISHDHAWSWVRQPPGEGLEWIGFISYSGITNYNPSLQGRVTISRDNSKNTLYLQMNSLRAEDTAVYYCARSLARTTAMDYWGEGTLVTVSSASTKGPSVFPLAPSSKSTSGGTAALGCLVKDYFPEPVTVSWNSGALTSGVHTFPAVLQSSGLYSLSSVVTVPSSSLGTQTYICNVNHKPSNTKVDKKVEPKSCDKTHTCPPCPAPELLGGDSVFLFPPKPKDTLMISRTPEVTCVVVDVSHEDPEVKFNWYVDGVEVHNAKTKPREEQYNSTYRVVSVLTVLHQDWLNGKEYKCKVSNMALPAPIEKTISKAKGQPREPQVYTLPPSRDELTKNQVSLTCLVKGFYPSDIAVEWESNGQPENNYKTTPPVLDSDGSFFLYSKLTVDKSRWQQGNVFSCSVMHEALHNHYTQESLSLSP
light: not shown
notes: IgG1; P238D/K326M (EU numbering) introduced into IL6R-B3
For B6, the Kd in test [7] is 0.007 µM; in [8], 9.9 µM.

B7: IL6R-PD087/IL6R-L (antibody, human IgG1, kappa)
heavy: QVQLQESGPGLVKPSETLSLTCAVSGHSISHDHAWSWVRQPPGEGLEWIGFISYSGITNYNPSLQGRVTISRDNSKNTLYLQMNSLRAEDTAVYYCARSLARTTAMDYWGEGTLVTVSSASTKGPSVFPLAPSSKSTSGGTAALGCLVKDYFPEPVTVSWNSGALTSGVHTFPAVLQSSGLYSLSSVVTVPSSSLGTQTYICNVNHKPSNTKVDKKVEPKSCDKTHTCPPCPAPELLGMDSVFLFPPKPKDTLYISRTPEVTCVVVDVSHEDPEVKFNWYVDGVEVHNAKTKPREEQYNSTYRVVSVLTVLHQDWLNGKEYKCKVSNKALPAPIEKTISKAKGQPREPQVYTLPPSRDELTKNQVSLTCLVKGFYPSDIAVEWESNGQPENNYKTTPPVLDSDGSFFLYSKLTVDKSRWQQGNVFSCSVMHEALHYHYTQKSLSLSP
light: not shown
notes: IL6R-F11 with P238D/G237M; copies: 2 + 2
In the case of B7, the values for the Kd in [9], in test [10] and in [11] were 22 µM, 20 µM and 37 µM, respectively.

A word on the Kd: it is a measure of binding affinity in units of concentration. High values mean a looser complex, low ones a tighter complex.

The values are drawn from US20140093496A1 (Chugai, published 2014).
